From patent publication US20230190950A1, “COMPOSITIONS AND METHODS FOR THE TREATMENT OF BACTERIAL INFECTIONS” (Cidara Therapeutics, Inc., priority 2017, published 2023)

Experiments:
Escherichia coli BW25113 = experiment: MIC assay (broth microdilution), Ec BW; format: cell-based; conditions: assay media RPMI A; for MIC, Ec BW + FBS: 50% heat-inactivated FBS
Experimental: (§1) Bacterial strains were stored as glycerol stocks at −80° C. prior to culturing on cation-adjusted Mueller-Hinton agar (MHA; BD cat. no. 211438) at 37° C. Antibacterial activity was assessed against a panel consisting of Escherichia coli, Acinetobacter baumannii, Pseudomonas aeruginosa, and Klebsiella pneumoniae strains (see Table 2).
(§2) Briefly, stock solutions of all antibacterial agents were prepared fresh in appropriate solvents (i.e. PBS, pH 7.4, DMSO, DI, etc.). Stock concentrations were made at 50× the highest final assay concentration and serially diluted 2-fold, 8 or 12 times in a 96-well PCR plate (VWR cat. no. 83007-374). Bacterial cell suspensions generated from MHA plate cultures were prepared in 0.85% saline and adjusted to ˜0.1 OD600 nm. […] Dorschner R A et al., The mammalian ionic environment dictates microbial susceptibility to antimicrobial defense peptides. FASEB J. 20(1):35-42 (2017). Ninety-eight microliters of each cell suspension in MHB were added to test wells in a 96-well assay plate (Costar cat. no. 3370). A Beckman Multimek 96 liquid handling robot was used to dispense 2 μL of each 50× stock compound into the plate containing 98 μL of each strain in MHB (2% final solvent concentration). E. coli strains BW25113 and ATCC 25922 were run in the presence and absence of 50% heat-inactivated fetal bovine serum (FBS; Sigma, cat. no. F4135-100 mL). Plates were mixed by shaking then incubated at 37° C. overnight (16-20 h).

[1] = tested on: Escherichia coli BW25113 + pUC18-mcr-1; experiment: MIC assay (broth microdilution), Ec BW (mcr-1); format: cell-based; conditions: assay media RPMI A
Description: An mcr-1 expression plasmid was constructed (GenScript; Piscataway, N.J.) using the pUC18 high copy number plasmid (Yanisch-Perron, et al., 1985). A 1649-bp fragment was synthesized containing, in order from 5′ to 3′: EcoR1 restriction site (5′-GAATTC-3′), a ribosomal binding site (5′-AGGAGG-3′), a 5-bp native start codon upstream sequence (5′-TTCTC-3′) from the mcr-1-bearing plasmid pHNSHP45 (Liu, Y Y, et al., 2015; GenBank Accession #KP347127), the 1626-bp mcr-1 open reading frame with stop codon (“orf00073” of GenBank Accession #KP347127), and finally an Xba1 restriction site sequence (5′-TCTAGA-3′). […] The pUC18-mcr-1 plasmid was transformed into chemically-competent E. coli BW25113 (Coli Genetic Stock Center #7636) as described previously (Chung, et al., PNAS. 1989), recovered for 1 h shaking at 37° C. in Super Optimal broth with Catabolite repression (SOC) media and then aliquots were plated on Luria-Bertani (LB) media containing 100 μg/mL of carbenicillin. Putative transformant colonies were then verified in MIC assays.
as §1
Briefly, stock solutions of all antibacterial agents were prepared fresh in appropriate solvents (i.e. PBS, pH 7.4, DMSO, DI, etc.). Stock concentrations were made at 50× the highest final assay concentration and serially diluted 2-fold, 8 or 12 times in a 96-well PCR plate (VWR cat. no. 83007-374). Bacterial cell suspensions generated from MHA plate cultures were prepared in 0.85% saline and adjusted to ˜0.1 OD600 nm. […] Later, conjugates 16 and 17, and 20-25 were evaluated in RPMI 1640 medium (+) L-glutamine, (+) sodium bicarbonate, pH 7.4 (“RPMI B”; Gibco, cat. no. 11875-085) as has been described as a more physiologically-relevant media for susceptibility testing of antibacterial compounds. […]

[2] = tested on: Escherichia coli BW25113 4X-12 (COL-R); experiment: MIC assay (broth microdilution), Ec BW 4X-12 (COL-R); format: cell-based; conditions: assay media RPMI A
Experimental: as §1
(§3) Briefly, stock solutions of all antibacterial agents were prepared fresh in appropriate solvents (i.e. PBS, pH 7.4, DMSO, DI, etc.). Stock concentrations were made at 50× the highest final assay concentration and serially diluted 2-fold, 8 or 12 times in a 96-well PCR plate (VWR cat. no. 83007-374). Bacterial cell suspensions generated from MHA plate cultures were prepared in 0.85% saline and adjusted to ˜0.1 OD600 nm. Next, cell suspensions were diluted 1:200 in RPMI containing 5% Luria Broth (LB) to improve bacterial growth (BD Difco, cat. no. 244620) to a concentration of ˜5×10^5 CFU (colony-forming units)/mL. […] Later, conjugates 16 and 17, and 20-25 were evaluated in RPMI 1640 medium (+) L-glutamine, (+) sodium bicarbonate, pH 7.4 (“RPMI B”; Gibco, cat. no. 11875-085) as has been described as a more physiologically-relevant media for susceptibility testing of antibacterial compounds. Dorschner R A et al., The mammalian ionic environment dictates microbial susceptibility to antimicrobial defense peptides. FASEB J. 20(1):35-42 (2017). Ninety-eight microliters of each cell suspension in MHB were added to test wells in a 96-well assay plate (Costar cat. no. 3370). A Beckman Multimek 96 liquid handling robot was used to dispense 2 μL of each 50× stock compound into the plate containing 98 μL of each strain in MHB (2% final solvent concentration). E. coli strains BW25113 and ATCC 25922 were run in the presence and absence of 50% heat-inactivated fetal bovine serum (FBS; Sigma, cat. no. F4135-100 mL). Plates were mixed by shaking then incubated at 37° C. overnight (16-20 h).

[3] = tested on: Escherichia coli ATCC 25922; experiment: MIC assay (broth microdilution), Ec 25922; format: cell-based; conditions: assay media RPMI A; for MIC, Ec 25922 + FBS: 50% heat-inactivated FBS
Experimental: as §1, §2

[4] = tested on: Escherichia coli ATCC BAA-2469; experiment: MIC assay (broth microdilution), Ec 2469; format: cell-based; conditions: assay media RPMI A
Experimental: as §1, §2

[5] = tested on: Acinetobacter baumannii ATCC 19606; experiment: MIC assay (broth microdilution), Ab 19606; format: cell-based; conditions: assay media RPMI A
Experimental: as §1, §2

[6] = tested on: Acinetobacter baumannii ABS075-UW; experiment: MIC assay (broth microdilution), Ab ABS075; format: cell-based; conditions: assay media RPMI A
Experimental: as §1, §2

[7] = tested on: Pseudomonas aeruginosa PAO1; experiment: MIC assay (broth microdilution), Pa PAO1; format: cell-based; conditions: assay media RPMI A
Experimental: as §1, §3

recombinant mouse FcRn = target: T1, recombinant mouse FcRn (Mus musculus, UniProt Q61559); experiment: Binding of conjugates to FcRn (ELISA), mouse; conditions: pH 6.25; 20 μg/mL starting concentration, 2-fold diluted
T1 construct: purchased R&D 6775-FC-050
T1 sequence (Q61559 22-297 limits assumed): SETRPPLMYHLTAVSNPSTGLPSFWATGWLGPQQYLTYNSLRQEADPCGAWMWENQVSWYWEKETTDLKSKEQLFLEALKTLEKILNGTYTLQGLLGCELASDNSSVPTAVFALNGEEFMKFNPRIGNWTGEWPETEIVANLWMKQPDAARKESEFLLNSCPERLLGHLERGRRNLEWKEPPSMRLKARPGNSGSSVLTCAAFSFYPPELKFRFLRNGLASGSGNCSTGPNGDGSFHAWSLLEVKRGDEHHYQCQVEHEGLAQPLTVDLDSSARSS
T1 sequence (P01887 21-119 partner): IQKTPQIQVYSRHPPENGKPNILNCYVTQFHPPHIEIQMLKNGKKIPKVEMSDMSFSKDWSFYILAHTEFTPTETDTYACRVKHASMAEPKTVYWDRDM
Experimental: 96-well ELISA plates (Fisher, Cat. No. 12-565-136) were coated with 0.25 μg/well of recombinant mouse FcRn (R&D, Cat. No. 6775-FC-050) or recombinant human FcRn (R&D, Cat. No. 8639-FC-050) in carbonate-bicarbonate buffer (Sigma, Cat. No. C34041) at pH 6.25 overnight at 37° C. A pH of 6.25 was maintained during the complete experiment. Blocking was carried out with 5% skim milk in PBS with 0.05% Tween 20. Purified conjugates were added at 20 μg/mL starting concentration and serially 2-fold diluted in blocking buffer. For detection, HRP-labeled secondary anti-mouse IgG-HRP (GE Healthcare, Cat. No. NA931V) or anti-human IgG-HRP (GE Healthcare, Cat. No. NA933V) was used to detect the bound conjugates. Absorbance was measured at 450 nm with a 96-well microplate reader and data were analyzed using GraphPad Prism software, FIGS. 33A-33F.

[8] = tested on: Acinetobacter baumannii ATCC 179778; experiment: MIC assay (broth microdilution), Ab 17978; format: cell-based; conditions: assay media RPMI A
Experimental: as §1
(§4) Briefly, stock solutions of all antibacterial agents were prepared fresh in appropriate solvents (i.e. PBS, pH 7.4, DMSO, DI, etc.). Stock concentrations were made at 50× the highest final assay concentration and serially diluted 2-fold, 8 or 12 times in a 96-well PCR plate (VWR cat. no. 83007-374). Bacterial cell suspensions generated from MHA plate cultures were prepared in 0.85% saline and adjusted to ˜0.1 OD600 nm. Next, cell suspensions were diluted 1:200 in RPMI containing 5% Luria Broth (LB) to improve bacterial growth (BD Difco, cat. no. 244620) to a concentration of ˜5×10^5 CFU (colony-forming units)/mL. […] Later, conjugates 16 and 17, and 20-25 were evaluated in RPMI 1640 medium (+) L-glutamine, (+) sodium bicarbonate, pH 7.4 (“RPMI B”; Gibco, cat. no. 11875-085) as has been described as a more physiologically-relevant media for susceptibility testing of antibacterial compounds. Dorschner R A et al., The mammalian ionic environment dictates microbial susceptibility to antimicrobial defense peptides. FASEB J. 20(1):35-42 (2017). […]

[9] = tested on: Pseudomonas aeruginosa ATCC 27853; experiment: MIC assay (broth microdilution), Pa 27853; format: cell-based; conditions: assay media RPMI A
Experimental: as §1, §4

Molecule | MIC, Ec BW (Escherichia coli BW25113) | MIC, Ec BW + FBS (Escherichia coli BW25113) | MIC, Ec BW (mcr-1) [1] | MIC, Ec BW 4X-12 (COL-R) [2] | MIC, Ec 25922 [3] | MIC, Ec 25922 + FBS [3] | MIC, Ec 2469 [4] | MIC Ab 19606 [5] | MIC Ab AB5075 [6] | MIC Pa PAO1 [7] | binding to mouse FcRn (ELISA) (recombinant mouse FcRn) | MIC Ab 17978 [8] | MIC Pa 27853 [9]
Conjugate 4 (conjugate, cyclised or stapled) PRGPTIKPCPPCKCPAPNLLGGPSVFIFPPKIKDVLMISLSPIVTCVVVDVSEDDPDVQISWFVNNVEVHTAQTQTHREDYNSTLRVVSALPIQHQDWMSGKEFKCKVNNKDLPAPIERTISKPKGSVRAPQVYVLPPPEEEMTKKQVTLTCMVTDFMPEDIYVEWTNNGKTELNYKNTEPVLDSDGSYFMYSKLRVEKKNWVERNSYSCSVVHEGLHNHHTTKSFSRTPGKHHHHHH | 32 µg/mL | 32 µg/mL | >128 µg/mL | >128 µg/mL | >128 µg/mL | 64 µg/mL | >128 µg/mL | 32 µg/mL | 32 µg/mL | 16 µg/mL | does not interfere with FcRn interaction | – | –
Conjugate 26: "Conjugate of m-IgG2a(His)6 Fc-3(Int-13)"; mlgG2a(His)6 Fc (SEQ ID NO: 6), reduced hinge disulfides; DAR=2/Fc dimer (conjugate, conjugated to Int-13 at hinge cysteines, "Conjugate of m-IgG2a(His)6 Fc-3(Int-13)"; DAR=2/Fc dimer) PRGPTIKPCPPCKCPAPNLLGGPSVFIFPPKIKDVLMISLSPIVTCVVVDVSEDDPDVQISWFVNNVEVHTAQTQTHREDYNSTLRVVSALPIQHQDWMSGKEFKCKVNNKDLPAPIERTISKPKGSVRAPQVYVLPPPEEEMTKKQVTLTCMVTDFMPEDIYVEWTNNGKTELNYKNTEPVLDSDGSYFMYSKLRVEKKNWVERNSYSCSVVHEGLHNHHTTKSFSRTPGKHHHHHH | 16 µg/mL | 32 µg/mL | >128 µg/mL | >128 µg/mL | >128 µg/mL | 128 µg/mL | 32 µg/mL | 128 µg/mL | 32 µg/mL | 64 µg/mL | – | 64 µg/mL | 16 µg/mL
